In publication PMC8121815 (Nature Communications, 2021):

Key:
[1] = target: T1, unliganded hTOM70 (cytoplasmic segment of human TOM70) (human); assay: ITC
T1 sequence (O94826 whole entry, looked up): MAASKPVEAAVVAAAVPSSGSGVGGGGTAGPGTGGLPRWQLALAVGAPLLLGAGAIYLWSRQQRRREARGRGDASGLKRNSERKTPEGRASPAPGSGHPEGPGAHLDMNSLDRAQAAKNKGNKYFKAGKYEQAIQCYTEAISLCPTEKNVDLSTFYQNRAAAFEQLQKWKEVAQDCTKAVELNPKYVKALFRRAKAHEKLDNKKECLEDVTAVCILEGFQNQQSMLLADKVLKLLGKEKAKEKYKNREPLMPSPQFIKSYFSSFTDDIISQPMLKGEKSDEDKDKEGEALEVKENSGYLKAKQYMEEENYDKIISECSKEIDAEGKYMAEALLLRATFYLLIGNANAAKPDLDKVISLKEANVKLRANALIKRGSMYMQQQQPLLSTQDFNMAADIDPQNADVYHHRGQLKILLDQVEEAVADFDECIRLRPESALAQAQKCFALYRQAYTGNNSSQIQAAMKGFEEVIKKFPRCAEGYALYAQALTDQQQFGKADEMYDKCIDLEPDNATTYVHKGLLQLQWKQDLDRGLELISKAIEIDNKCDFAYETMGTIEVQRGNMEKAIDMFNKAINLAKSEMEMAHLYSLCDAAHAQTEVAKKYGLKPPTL

hTOM70/N-peptide complex = hTOM70/N-peptide complex (Homo sapiens, UniProt O94826); type: binding
[2] = target: T2, SARS-CoV-2 orf9b with an N-terminal His-tag, co-expressed with hTOM70 (SARS-CoV-2, UniProt P0DTD2 1-97); assay: SEC + AUC; conditions: both partners purified
T2 construct: also called intact orf9b
T2 sequence (P0DTD2 whole entry): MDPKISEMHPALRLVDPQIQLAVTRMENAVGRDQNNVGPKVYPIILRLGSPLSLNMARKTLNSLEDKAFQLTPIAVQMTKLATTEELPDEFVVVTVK

Molecule: C-peptide (SARS-CoV-2 orf9b core sequence 44-70) (from UniProt P0DTD2 44-70)
- dH [1]: 2.65 kcal/mol

Molecule: CC[C@H](C)[C@H](N)C(=O)N[C@H](C(=O)N[C@@H](CC(C)C)C(=O)N[C@@H](CCCNC(=N)N)C(=O)N[C@@H](CC(C)C)C(=O)NCC(=O)N[C@@H](CO)C(=O)N1CCC[C@H]1C(=O)N[C@@H](CC(C)C)C(=O)N[C@@H](CO)C(=O)N[C@@H](CC(C)C)C(=O)N[C@@H](CC(N)=O)C(=O)N[C@@H](CCSC)C(=O)N[C@@H](C)C(=O)N[C@@H](CCCNC(=N)N)C(=O)N[C@@H](CCCCN)C(=O)N[C@H](C(=O)N[C@@H](CC(C)C)C(=O)N[C@@H](CC(N)=O)C(=O)N[C@@H](CO)C(=O)N[C@@H](CC(C)C)C(=O)N[C@@H](CCC(=O)O)C(=O)N[C@@H](CC(=O)O)C(=O)N[C@@H](CCCCN)C(=O)N[C@@H](C)C(=O)N[C@@H](Cc1ccccc1)C(=O)N[C@@H](CCC(N)=O)C(=O)O)[C@@H](C)O)[C@@H](C)CC [C-peptide]
- ΔH, enthalpy variation (hTOM70/N-peptide complex): 0.981 ± 0.024 kcal/mol
- ΔS, entropy variation (hTOM70/N-peptide complex): 32.5

B1: hTOM70 ΔN2 (106-608), co-expressed with orf9b (domain or fragment, human, UniProt O94826 106-608, looked up)
chain: LDMNSLDRAQAAKNKGNKYFKAGKYEQAIQCYTEAISLCPTEKNVDLSTFYQNRAAAFEQLQKWKEVAQDCTKAVELNPKYVKALFRRAKAHEKLDNKKECLEDVTAVCILEGFQNQQSMLLADKVLKLLGKEKAKEKYKNREPLMPSPQFIKSYFSSFTDDIISQPMLKGEKSDEDKDKEGEALEVKENSGYLKAKQYMEEENYDKIISECSKEIDAEGKYMAEALLLRATFYLLIGNANAAKPDLDKVISLKEANVKLRANALIKRGSMYMQQQQPLLSTQDFNMAADIDPQNADVYHHRGQLKILLDQVEEAVADFDECIRLRPESALAQAQKCFALYRQAYTGNNSSQIQAAMKGFEEVIKKFPRCAEGYALYAQALTDQQQFGKADEMYDKCIDLEPDNATTYVHKGLLQLQWKQDLDRGLELISKAIEIDNKCDFAYETMGTIEVQRGNMEKAIDMFNKAINLAKSEMEMAHLYSLCDAAHAQTEVAKKYGLKPPTL
notes: also called TOM70 (106-608); cytosolic domain of hTOM70
- stoichiometry N [2]: 1
